Results from US20240180969A1 (published 2024).

Biological target: T1, peptide on HLA-A*11:01 (human)
T1 peptide: VVVGAVGVGK
Assay: activation reporter or marker
Description: Jurkat NFAT-Luciferase effector cells (JNL) cells were transfected on day 1 with TCR or CAR constructs using standard protocols for the Neon™ transfection system (ThermoFisher MPK5000). T2 HLA-A*11 target cells were loaded with peptide […] (SEQ ID NO: 110). Peptides were resuspended in DMSO, and serially-diluted 20 times, 3× per dilution. Serially diluted peptide solutions were added to T2 HLA-A*11 cells resuspended in peptide-loading media (RPMI 1640+1% BSA+1×P/S). This yielded peptide-loaded T2 HLA-A*11 cells at approximately ˜0.67E6/mL, with peptide concentrations ranging from ˜10 fM to 100 μM, including a control at 0 μM. Peptide-loaded T2 HLA-A*11 cells were incubated overnight at 37° C. in 384-well plates, plated at 10,000 cells per well (Corning 3570). On day 2, transfected JNL cells (10,000 cells/well) were added to the peptide-loaded T2 HLA-A*11 cells to a final volume of 30 μL. After a 6-hour incubation at 37° C., the One-Step™ Luciferase assay system (Firefly luciferase, BPS Bioscience, 60690) was used to determine luminescence intensity on a Tecan Infinite® M1000.

B1: Positive Control TCR (TRAV3-3*01/TRBV4*01) (TCR, V domains shown)
Valpha: GEQVEQRPPHLSVREGDSAVITCTYTDPNSYYFFWYKQEPGASLQLLMKVFSSTEINEGQGFTVLLNKKDKRLSLNLTAAHPGDSAAYFCAVSGGTNSAGNKLTFGIGTRVLVRP
Vbeta: ETAVFQTPNYHVTQVGNEVSFNCKQTLGHDTMYWYKQDSKKLLKIMFSYNNKQLIVNETVPRRFSPQSSDKAHLNLRIKSVEPEDSAVYLCASSRDWGPAEQFFGPGTRLTVL
**Q.** Does B1 bind?
**A.** Result: recognises
